# Results taken from patent publication US20070259809A1.
# Biological target: human thrombin (human) (UniProt P00734)
# Test: cell-based or functional assay
substance,measurement,value
recombinant DES.N135A ATIII (from UniProt P01008 33-464),"thrombin inhibition (residual thrombin activity by chromogenic assay); 1 µM dose, wall shear rate 2,000 sec^-1",> 85%
